In turn, “Human protein farnesyltransferase (hFTase)” had a Turnover numbers under the optimal substrate concentrations in the data set on Ras-CVLS (SEQ ID NO: 3) of 1 min⁻¹. As to “W102T mutant of human FTase (W102β converted to threonine)”, in the data set with Ras-CVLS (SEQ ID NO: 3), the Turnover numbers under the optimal substrate concentrations stood at 0.59 min⁻¹ and the “substrate specificity characterized by enzymatic assays” value is reported as “creating an FTase enzyme greatly preferring GGPP over FPP as its isoprenoid substrate without significantly altering Ca1a2X sequence specificity”. Consider “Wild-type GGTase-I used in the prenylation assay of Example 3”, for which the Turnover numbers under the optimal substrate concentrations in the data set with Ras-CVLL (SEQ ID NO: 4) was determined as 0.65 min⁻¹.

For the origin of these results see patent publication US20050221459.
